Experimental data reported in article PMC6540952.

Test system: Nc1ncnc2c1ncn2[C@@H]1O[C@H](COP(=O)(O)OP(=O)(O)OP(=O)(O)O)[C@@H](O)[C@H]1O
Assay: purified protein
Type: biochemical, Homo sapiens

With IP6K1 (Homo sapiens) as the substance, how does the Km read?
The Km was 353 ± 167 µM.
